Assay [1] deals with T1, Recombinant human PD-1 (Beijing Sino Biological Inc., Catalog No. 10377-H08H) (human, UniProt Q15116 25-167).
T1 construct: Bought recombinant protein
Kind of assay: ELISA, human PD-1 coated on the plate, anti-human IgG-HRP detection.

Assay [2] concerns the target T1, Recombinant human PD-1 (Beijing Sino …). The experiment in a line: ELISA, human PD-1 coated on the plate, anti-human IgG-HRP detection; control.

T1 sequence (Q15116 25-167 limits assumed): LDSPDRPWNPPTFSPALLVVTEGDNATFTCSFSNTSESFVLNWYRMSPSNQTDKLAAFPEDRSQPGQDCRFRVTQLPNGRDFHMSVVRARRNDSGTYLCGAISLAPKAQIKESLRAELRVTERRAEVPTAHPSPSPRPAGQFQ

B1: anti PD-1(BJHM)/VEGF(Bevaci) heterodimeric antibody (bispecific antibody, human IgG1, kappa, N297A)
heavy 1: EVNLVESGGGLVQPGGSLRLSCAASGFTFSSYGMSWVRQAPGKGLEWVASISGGGRYTYYPDSMKGRFTISRDNSKNNLYLQMNSLRAEDTAVYYCVYEYFYTMDYWGQGTLVTVSSASTKGPSVFPLAPSSKSTSGGTAALGCLVKDYFPEPVTVSWNSGALTSGVHTFPAVLQSSGLYSLSSVVTVPSSSLGTQTYICNVNHKPSNTKVDKKVEPKSCDKTHTCPPCPAPELLGGPSVFLFPPKPKDTLMISRTPEVTCVVVDVSHEDPEVKFNWYVDGVEVHNAKTKPREEQYASTYRVVSVLTVLHQDWLNGKEYKCKVSNKALPAPIEKTISKAKGQPREPQVYTLPPSRDELTKNQVSLLCLVKGFYPSDIAVEWESNGQPENNYKTTPPVLRSDGSFFLYSKLTVDKSRWQQGNVFSCSVMHEALHNHYTQKSLSLSPGK
light 1: DIVLTQSPATLSLSPGERATLSCRASQSISNNLHWYQQKPGQAPRLLIRFASQSISGIPARFSGSGSGTDFTLTISSLEPEDFAVYFCQQSDNWPLTFGGGTKVEIKRTVAAPSVFIFPPSDEQLKSGTASVVCLLNNFYPREAKVQWKVDNALQSGNSQESVTEQDSKDSTYSLSSTLTLSKADYEKHKVYACEVTHQGLSSPVTKSFNRGEC
heavy 2: EVQLVESGGGLVQPGGSLRLSCAASGYTFTNYGMNWVRQAPGKGLEWVGWINTYTGEPTYAADFKRRFTFSLDTSKSTAYLQMNSLRAEDTAVYYCAKYPHYYGSSHWYFDVWGQGTLVTVSSASTKGPSVFPLAPSSKSTSGGTAALGCLVKDYFPEPVTVSWNSGALTSGVHTFPAVLQSSGLYSLSSVVTVPSSSLGTQTYICNVNHKPSNTKVDKKVEPKSCDKTHTCPPCPAPELLGGPSVFLFPPKPKDTLMISRTPEVTCVVVDVSHEDPEVKFNWYVDGVEVHNAKTKPREEQYASTYRVVSVLTVLHQDWLNGKEYKCKVSNKALPAPIEKTISKAKGQPREPQVYTEPPSRDELTKNQVSLTCLVKGFYPSDIAVEWESNGQPENNYKTTPPVLDSDGSFFLLSVLTVDKSRWQQGNVFSCSVMHEALHNHYTQKSLSLSPGK
light 2: not shown
As for B1, the binding result in assay [1] is given as “binds”.

B2: anti-PD-1 (Pembro)/VEGF (G631) heterodimeric antibody (bispecific antibody, human IgG1, kappa, N297A)
heavy 1: QVQLVQSGVEVKKPGASVKVSCKASGYTFTNYYMYWVRQAPGQGLEWMGGINPSNGGTNFNEKFKNRVTLTTDSSTTTAYMELKSLQFDDTAVYYCARRDYRFDMGFDYWGQGTTVTVSSASTKGPSVFPLAPSSKSTSGGTAALGCLVKDYFPEPVTVSWNSGALTSGVHTFPAVLQSSGLYSLSSVVTVPSSSLGTQTYICNVNHKPSNTKVDKKVEPKSCDKTHTCPPCPAPELLGGPSVFLFPPKPKDTLMISRTPEVTCVVVDVSHEDPEVKFNWYVDGVEVHNAKTKPREEQYASTYRVVSVLTVLHQDWLNGKEYKCKVSNKALPAPIEKTISKAKGQPREPQVYTLPPSRDELTKNQVSLLCLVKGFYPSDIAVEWESNGQPENNYKTTPPVLRSDGSFFLYSKLTVDKSRWQQGNVFSCSVMHEALHNHYTQKSLSLSPGK
light 1: EIVLTQSPATLSLSPGERATLSCRASKGVSTSGYSYLHWYQQKPGQAPRLLIYLASYLESGVPARFSGSGSGTDFTLTISSLEPEDFAVYYCQHSRDLPLTFGGGTKVEIKRTVAAPSVFIFPPSDEQLKSGTASVVCLLNNFYPREAKVQWKVDNALQSGNSQESVTEQDSKDSTYSLSSTLTLSKADYEKHKVYACEVTHQGLSSPVTKSFNRGEC
heavy 2: EVQLVESGGGLVQPGGSLRLSCAASGFTISDYWIHWVRQAPGKGLEWVAGITPAGGYTYYADSVKGRFTISADTSKNTAYLQMNSLRAEDTAVYYCARFVFFLPYAMDYWGQGTLVTVSSASTKGPSVFPLAPSSKSTSGGTAALGCLVKDYFPEPVTVSWNSGALTSGVHTFPAVLQSSGLYSLSSVVTVPSSSLGTQTYICNVNHKPSNTKVDKKVEPKSCDKTHTCPPCPAPELLGGPSVFLFPPKPKDTLMISRTPEVTCVVVDVSHEDPEVKFNWYVDGVEVHNAKTKPREEQYASTYRVVSVLTVLHQDWLNGKEYKCKVSNKALPAPIEKTISKAKGQPREPQVYTEPPSRDELTKNQVSLTCLVKGFYPSDIAVEWESNGQPENNYKTTPPVLDSDGSFFLLSVLTVDKSRWQQGNVFSCSVMHEALHNHYTQKSLSLSPGK
light 2: not shown
notes: Heterodimer of two half antibodies; it is not spelled out for this molecule; also called anti-PD-1 (Pembro)/VEGF (G631) heterodimer antibody
B2: in assay [1], the binding result is on record as “binds”.

B3: anti-PD-1 (BJHM)/VEGF (G631) heterodimeric antibody (bispecific antibody, human IgG1, kappa, N297A)
heavy 1: B1 heavy 1
light 1: B1 light 1
heavy 2: B2 heavy 2
light 2: not shown
B3: in assay [1], the binding result is listed as “binds”.

B4: PD-1 (BJHM) monoclonal antibody (antibody, V domains shown)
VH: EVNLVESGGGLVQPGGSLRLSCAASGFTFSSYGMSWVRQAPGKGLEWVASISGGGRYTYYPDSMKGRFTISRDNSKNNLYLQMNSLRAEDTAVYYCVYEYFYTMDYWGQGTLVTVSS
VL: DIVLTQSPATLSLSPGERATLSCRASQSISNNLHWYQQKPGQAPRLLIRFASQSISGIPARFSGSGSGTDFTLTISSLEPEDFAVYFCQQSDNWPLTFGGGTKVEIK
notes: Control monoclonal antibody; also called anti-human PD-1 antibody PD-1(BJHM)
As to B4, the binding result in assay [2] was “binds”.

The record behind these values is patent US20210040193A1 (BEIJING HANMI PHARMACEUTICAL, published 2021).
